Test results published in patent US7018836.

Molecular target: Drosophila RNA polymerase II large subunit, P04052
Sequence (P04052 whole entry): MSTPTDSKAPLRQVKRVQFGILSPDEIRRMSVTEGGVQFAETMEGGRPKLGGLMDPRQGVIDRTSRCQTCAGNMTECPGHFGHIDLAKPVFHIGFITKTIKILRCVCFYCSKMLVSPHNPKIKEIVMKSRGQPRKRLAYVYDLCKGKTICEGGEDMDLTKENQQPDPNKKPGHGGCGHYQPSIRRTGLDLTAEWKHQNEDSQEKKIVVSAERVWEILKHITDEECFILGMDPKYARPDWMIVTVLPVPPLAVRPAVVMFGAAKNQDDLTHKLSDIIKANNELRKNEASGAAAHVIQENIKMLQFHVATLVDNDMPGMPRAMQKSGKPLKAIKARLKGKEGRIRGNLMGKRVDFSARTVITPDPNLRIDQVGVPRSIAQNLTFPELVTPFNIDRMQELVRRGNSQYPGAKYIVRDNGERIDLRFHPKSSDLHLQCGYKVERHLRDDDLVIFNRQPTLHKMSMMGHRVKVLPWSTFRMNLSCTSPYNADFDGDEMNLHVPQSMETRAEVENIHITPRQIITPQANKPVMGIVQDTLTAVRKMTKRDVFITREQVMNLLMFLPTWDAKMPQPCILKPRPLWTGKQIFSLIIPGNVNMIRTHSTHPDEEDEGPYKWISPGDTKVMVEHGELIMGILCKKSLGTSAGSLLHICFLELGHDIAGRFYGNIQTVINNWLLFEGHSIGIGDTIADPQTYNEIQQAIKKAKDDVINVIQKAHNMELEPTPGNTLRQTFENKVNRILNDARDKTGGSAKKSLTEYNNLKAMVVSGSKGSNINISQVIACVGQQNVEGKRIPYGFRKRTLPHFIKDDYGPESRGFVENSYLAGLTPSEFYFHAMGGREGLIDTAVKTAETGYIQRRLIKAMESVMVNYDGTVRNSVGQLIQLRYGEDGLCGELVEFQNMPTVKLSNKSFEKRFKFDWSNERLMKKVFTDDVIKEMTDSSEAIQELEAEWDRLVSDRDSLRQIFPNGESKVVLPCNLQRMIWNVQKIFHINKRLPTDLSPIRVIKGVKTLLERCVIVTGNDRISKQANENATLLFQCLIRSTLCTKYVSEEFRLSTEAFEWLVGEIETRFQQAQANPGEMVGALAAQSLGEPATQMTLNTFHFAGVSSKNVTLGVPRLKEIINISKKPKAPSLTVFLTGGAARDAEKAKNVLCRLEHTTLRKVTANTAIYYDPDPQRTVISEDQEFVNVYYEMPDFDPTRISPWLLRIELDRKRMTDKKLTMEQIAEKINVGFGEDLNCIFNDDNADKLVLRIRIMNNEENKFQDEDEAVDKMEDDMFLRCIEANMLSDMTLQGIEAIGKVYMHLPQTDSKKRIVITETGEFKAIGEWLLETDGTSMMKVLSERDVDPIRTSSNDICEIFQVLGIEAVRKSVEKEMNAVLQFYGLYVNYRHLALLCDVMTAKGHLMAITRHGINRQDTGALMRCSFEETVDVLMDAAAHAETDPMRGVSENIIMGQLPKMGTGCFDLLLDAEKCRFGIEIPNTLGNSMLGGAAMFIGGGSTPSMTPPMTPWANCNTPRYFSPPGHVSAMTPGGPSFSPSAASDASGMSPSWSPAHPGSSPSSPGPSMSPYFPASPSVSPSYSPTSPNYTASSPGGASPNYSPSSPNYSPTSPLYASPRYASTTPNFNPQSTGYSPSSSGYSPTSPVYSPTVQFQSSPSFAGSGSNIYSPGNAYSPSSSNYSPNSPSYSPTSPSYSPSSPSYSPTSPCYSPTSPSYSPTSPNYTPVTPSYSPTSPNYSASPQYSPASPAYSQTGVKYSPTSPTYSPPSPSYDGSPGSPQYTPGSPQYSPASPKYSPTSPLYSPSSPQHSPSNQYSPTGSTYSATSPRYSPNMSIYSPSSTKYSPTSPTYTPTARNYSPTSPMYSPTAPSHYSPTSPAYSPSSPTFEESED

B1: Drosophila P-TEFb (protein)
chain 1: MAHMSHMLQQPSGSTPSNVGSSSSRTMSLMEKQKYIEDYDFPYCDESNKYEKVAKIGQGTFGEVFKAREKKGNKKFVAMKKVLMDNEKEGFPITALREIRILQLLKHENVVNLIEICRTKATATNGYRSTFYLVFDFCEHDLAGLLSNMNVKFSLGEIKKVMQQLLNGLYYIHSNKILHRDMKAANVLITKHGILKLADFGLARAFSIPKNESKNRYTNRVVTLWYRPPELLLGDRNYGPPVDMWGAGCIMAEMWTRSPIMQGNTEQQQLTFISQLCGSFTPDVWPGVEELELYKSIELPKNQKRRVKERLRPYVKDQTGCDLLDKLLTLDPKKRIDADTALNHDFFWTDPMPSDLSKMLSQHLQSMFEYLAQPRRSNQMRNYHQQLTTMNQKPQDNSMIDRVW
chain 2: MSLLATPMPQAATASSSSSASAAASASGIPITANNNLPFEKDKIWYFSNDQLANLPSRRCGIKGDDELQYRQMTAYLIQEMGQRLQVSQLCINTAIVYMHRFYAFHSFTHFHRNSMASASLFLAAKVEEQPRKLEHVIRAANKCLPPTTEQNYAELAQELVFNENVLLQTLGFDVAIDHPHTHVVRTCQLVKACKDLAQTSYFLASNSLHLTSMCLQYRPTVVACFCIYLACKWSRWEIPQSTEGKHWFYYVDKTVSLDLLKQLTDEFIAIYEKSPARLKSKLNSIKAIAQGASNRTANSKDKPKEDWKITEMMKGYHSNITTPPELLNGNDSRDRDRDRERERERERDPSSLLPPPAMVPQQRRQDGGHQRSSSVSGVPGSSSSSSSSSHKMPNYPGGMPPEAHPDHKSKQPGYNNRMPSSHQRSSSSGLGSSGSGSQHSSSSSSSSSQQPGRPSMPVDYHKSSRGMPPVGVGMPPHGSHKMTSGSKPQQPQQQPVPHPSASNSSASGMSSKDKSQSNKMYPNAPPPYSNSAPQNPLMSRGGYPGASNGSQPPPPAGYGGHRSKSGSTVHGMPHFEQQLPYSQSQSYGHMQQQPVPQSQQQQMPPEASQHSLQSKNSLFSPEWPDIKKEPMSQSQPQLFNGLLPPPAPPGHDYKLNSHPRDKESPKKERLTPTKKDKHRPVMPPMGSGNSSSGSGSSKPMLPPHKKQIPHGGDLLTNPGESGSLKRPNEISGSQYGLNKLDEIDNSNMPREKLRKLDTTTGLPTYPNYEEKHTPLNMSNGIETTPDLVRSLLKESLCPSNASLLKPDALTMPGLKPPAELLEPMPAPATIKKEQGITPMTSLASGPAPMDLEVPTKQAGEIKEESSSKSEKKKKKDKHKHKEKDKSKDKTEKEERKKHKRDKQKDRSGSGGSKDSSLPNEPLKMVIKNPNGSLQAGASAPIKLKISKNKVEPNNYSAAAGLPGAIGYGLPPTTATTTSASIGAAAPVLPPYGAGGGGYSSSGGSSSGGSSKKKHSDRDRDKESKKNKSQDYAKYNGAGGGIFNPLGGAGAAPNMSGGMGAPMSTAVPPSMLLAPTGAVPPSAAGLAPPPMPVYNKK
CTD kinase assay (phosphate incorporation, mobility shift): incubation of P-TEFb with intact RNA polymerase II caused the incorporation of phosphate into the large subunit and a shift to the IIo form
incorporation of label into the large subunit after chymotrypsin truncation of the CTD: the CTD-less polymerase (20 min digestion) was not detectably phosphorylated
